In US20080279847A1:

Columns and labels:
[1] = biological target: tumor-associated glycoprotein-72 (TAG-72), used as TAG-72-positive BSM (bovine submaxillary mucin, type-1-S, Sigma) (bovine); assay: competitive ELISA, whole IgG, reference 3E8
[2] = biological target: tumor-associated glycoprotein-72 (TAG-72), used as TAG-72-positive BSM (bovine submaxillary mucin, type-1-S, Sigma) (bovine); assay: competitive ELISA, whole IgG in COS7 culture supernatant
[3] = biological target: tumor-associated glycoprotein-72 (TAG-72), used as TAG-72-positive BSM (bovine submaxillary mucin, type-1-S, Sigma) (bovine); assay: competitive ELISA, whole IgG expressed in animal cells, reference 3E8 whole IgG (FIG. 9)

fold higher antigen binding affinity than the 3E8 antibody [1]: 1.5 fold
Kd [2]: 0.45 nM
fold higher antigen binding affinity than the 3E8 antibody [3]: 1.5 fold
B1: humanized antibody 3E8/BSM22 (whole IgG form) (antibody, V domains shown)
VH: QVQLVQSGAEVKKPGASVKVSCKASGYTFTDHAIHWVRQAPGQRLEWMGYFSPGNDDFKYSQKFQGRVTITADKSASTAYMELSSLRSEDTAVYYCARSWIMQYWGQGTLVTVSS
VL: DIVMTQSPDSLAVSLGERATIHCKSSQSILYSSNNKNYLAWYQQKPGQPPKLLLYWASTREAGVPDRFSGGGSGTDFTLTISSLQPEDSATYYCQQYNTYPLTFGGGTKVEIK
